Reference: the DeepSol protein solubility set

Experiment: soluble on expression in E. coli; label from the status in PepcDB or PDB records

Soluble on expression in E. coli, not soluble:
MGSDKIHHHHHHMDSEIIKALKRFGFTQQESIMYVTLCRHGALTGYEAAKLAGISRSNAYAALSSLVEKGGAVVASDDTSKYVPTPRKELLVTIRRHCDETLEFLEQHLPEEQPVEMPYLTVTGYQNTMDKVRNMLRLAQLRVYISMHSGNAAQLKEDMAACAARGLKVVILSDADPQISGAIFMHNAAGTGHIKLIADTREVITGVVDQAARTGQCLYSANEHLVYLMREALLNEIELIKIRSGMSGAEPEESPTRGK
MGSDKIHHHHHHMDSVSPELISNNQGYDRSHKQRLECLICNYHVDLNDKSAFSTFFCNVRAFRDEKFPIWRCPTCQTIHCLDVVDIDSYYAKYPFAEAKLTLPFRLCYQNLCQKMIEHGFSKTHSFLDYGCGNGLVVQYLRENGFANAYGYDPYAPKESFGDATVLQRGPFDYILLQDIIEHVEDPHALLSKLDSLLAPGGYLLLGTPNATNIDINRPELSNYYNAVHVPYHIHIYTREVVESLGKQQGWEVVKFFNRGYDDTRWFGLNTRTWNEYQSISDGTFDVIFEEINIWQALKSYRFLFYAFFGYWLSLRTDMTIMFRKKITD
MGSDKIHHHHHHMDTKAFKRALHQSDRYNRKGFGKTTDVSGALESAYQSDLIQSLRQNGYRLQRGEITIRLAEAFGFCWGVERAVAIAYETRQHFPQERIWITNEIIHNPSVNQHLREMSVEFIPCERGEKDFSVVDRGDVVILPAFGASVQEMQLLDEKGCHIVDTTCPWVSKVWNTVEKHKRGAHTSIIHGKYNHEETVATSSFAETYLVVLNLEQAQYVCDYILNGGDRDEFMTRFGKACSAGFDPDRDLERIGIANQTTMLKSETEAIGKLFERTLLKKYGPQALNDHFLAFNTICDATQERQDAMFQLVEEPLDLIVVIGGFNSSNTTHLQEIAIERQIPSFHIDAAERIGPGNRIEHKPLHTDLTTTEPWLPAGPLTIGITSGASTPDKVVEDVIERLFDLQRS
MGSDKIHHHHHHMDYPQQHIKPYNEDGKKTEQVERMFDNIAHAYDKLNHTLSLGIDRSWRRKAIAWLRPFRPQHIMDVATGTGDFAILACRELNPDELIGTDISEGMMNVGREKVKKEGLSDKISFAREDCTSLSFADNRFDAITVAFGIRNFEDLDKGLSEMCRVLKPGGHLVILELTTPDRFPMKQLFAIYSKVVIPLLGKLLSKDNSAYHYLPDTIKVFPQGEVMKGVISKTGFGEVHFRRLTFGICTLYTATK
MGSDKIHHHHHHMDYRQPDLSVITVNYNGFHDTCEFIDSWAATVFSVSYEMIVIDNGSTANEAALLQKTYPFIQAVRSERNLGFAGGNNLGINLAKGKYLFLLNNDVCMVKDAIPLLIKRLLSSDKIAGVSPLIRDYAEPHAIQFAGYTQLSPITLRNRAIGKGKINKDHYPAQKTPYLHGAAMLLKKTIIDKLSLMPEEYFLYYEELDWCTYINREGYELWYDPACEIWHKDSSSTGKESPLKYYYLSRNRLLYAYRNLFDWKLPVSILYQTMIVCPKNILTALGKGKKAIAKAHWEGTKAFFKLRNKDKQP
MGSDKIHHHHHHMEAADASRSNGSSPEARDARSPSGPSGSLENGTKADGKDAKTTNGHGGEAAEGKSLGSALKPGEGRSALFAGNEWRRPIIQFVESGDDKNSNYFSMDSMEGKRSPYAGLQLGAAKKPPVTFAEKGELRKSIFSESRKPTVSIMEPGETRRNSYPRADTGLFSRSKSGSEEVLCDSCIGNKQKAVKSCLVCQASFCELHLKPHLEGAAFRDHQLLEPIRDFEARKCPVHGKTMELFCQTDQTCICYLCMFQEHKNHSTVTVEEAKAEKETELSLQKEQLQLKIIEIEDEAEKWQKEKDRIKSFTTNEKAILEQNFRDLVRDLEKQKEEVRAALEQREQDAVDQVKVIMDALDERAKVLHEDKQTREQLHSISDSVLFLQEFGALMSNYSLPPPLPTYHVLLEGEGLGQSLGNFKDDLLNVCMRHVEKMCKADLSRNFIERNHMENGGDHRYVNNYTNSFGGEWSAPDTMKRYSMYLTPKGGVRTSYQPSSPGRFTKETTQKNFNNLYGTKGNYTSRVWEYSSSIQNSDNDLPVVQGSSSFSLKGYPSLMRSQSPKAQPQTWKSGKQTMLSHYRPFYVNKGNGIGSNEAP
MGSDKIHHHHHHMEAVERVNLLGLDGAALSELVGQWGGKPFRARQLQRWVHQRGADSFDAMTDLARDFRAQLARDCVIEALPVNTEQRSSDGTRKWLFDVGQGNAIETVFIPEDDRGTLCISSQAGCVVNCRFCSTGHQGFNRNLRASEIIGQLWWAKRVLEAAADTARLPGGKAGEDTRVISNVVMMGMGEPLLNYDQVLPALRLMLDDNAYGLSRRRVTVSTSGVVPMMDRLSQDCPVALAVSLHAPNDALRDELVPLNKKYPLNALLAACERYLAHAPRDFITFEYCMLDGINDTDQHARELIQLARQVRCKLNLIPFNPFPASGLKRSPSARVRVFAQRLMDAGIVTTVRKTRGDDIDAACGQLAGEVRDRTRITERNATRTIPIQQVHA
MGSDKIHHHHHHMEEITKIESIDQYDQLFGLETLHPLVNVIDFSKATKTVDYYRMNIGFYSLFLKDAKCGDLRYGRKYYDYQEGTVVCMAPGQVIGIDNRKQTPIRTKSIGLLFHPDLIRGTSLGQNIKHYSFFSYEVNEALHLSEQEREIVTDCIHKIQIELEHAIDKHSKQLIVRNIELLLDYCMRFYERQFITRNQANKDIIVKFEQLLDEYFQNQTALTEGLPSVKYFADKVCLSSNYFGDLIKKETGKTAQEYIQHRIIELAKERILEGSQTVSQIAYELGFQYPQHFSRLFKKNVGCTPNEYKQQN
MGSDKIHHHHHHMEEVINGILIREVETKNIMTKSSLPVGGYSVNPYVGCTHACKYCYASFMKRFTGHKEEWGTFLDVKHWPEIKNPKKYAGQRVVIGSVTDGYNPQEEQFGNTRKLLEQLIGSDADILICTKSDLVVRDIDLLKKLGRVTVSWSINTLDENFKNDMDSASSIERRISAMKQVYESGIRTVCFVSPVFPGITDFEAIFERVKDQCDLFWLENLNLRGGFKKTIMDYITGQYPDLVPLYDEIYNKHNRSYFEALEVKAEKMAKKYDCAFVDNEMPYGRVPQGHPVIVDYFYHEEIRGTENTGKRNR
MGSDKIHHHHHHMEFEFCVQDPTDPGTRYLYEAIIGAAADATTWRGMYAFATRGGVDQLIEDPVVHEFMRRGGEIDLIVGIDAVTNRQTLERMQALEERHEHFHPKVFWNTTGGLFHPKISHFGYADGRTKLILGSGNLTPGGLRHNFEGYSVISGGRREAIDLSSLDAFIARHEADIRPIDQAALDRAALNIVRPVAALPGPRAPQLRPPRAVSREAVLDRILLAQVPAAGGRWSQVHFNTQITEQYFRVTDVATQRVYLTSIDAAGLRGEEEVRPVVFSQANGNHKIEIAAAKGLDYPDSPPLLVFRERQVRCFDYMLLMPDSPGYGELLGLSQALPTIGRGLRRAITDMATLSQAWPACPLLTAGDALDQTI
MGSDKIHHHHHHMEFHEIDRMAKKLGADIFGVADLDLLREYETFPENLLDSFDFGISIGVKLPDPLFDMLPDSRNLYSRYYVVANDMLDRIAFEISRAIESEGYEALPIPASKVLSDLHWRSYVSHKAIARAAGVGWVGRNLLLITPQFGPRVRLASVLTDMPLKAGKPARNRCGVCRECIDSCITQALRYSEFDDYPERDEVFEVDKCAAKLKEFASNPDIGTMVCGICIKVCPWGKLGNKTKGN
MGSDKIHHHHHHMEHNRVLRLEHGINFRELGGYENTAGQTIKWQKLLRCGGMSLLTNRDLTYLDNYGLRYDIDLRQANEAEMSPDRYPKNTKYINTSVYPFTDNRRFDRRLKRLIKRMVVDDSFNAQTYAQMITDSHAVKVWQNLFATLLANDQPDQSVLFHCAAGKDRTGVAGALIMTALDVPRETIMQDYLLTNAVFMAADSMDTATIITKANAGDLASQFNVAMAVEADNMKMVFRVFDDLYGNGIGYLREVLGLSVADINNLRQLYLND
MGSDKIHHHHHHMEIEAVEKEAIEKLSKISNVQELESFRIEFLGKKGKITGLMKNLKNLPPEERPAYGKRVNELREKIEKLFEEKRQQIQRILEQEKMEKMRIDVTVPGARRKLGHSHPVLKVMEEIERIFVSMGFDVVEGPEIETTWHNFDALNTPEWHPARDEHDSFYITDDLLLRTHTSPVQIRTMLERKPPIAIISPGKVYRRDYDATHLPMFHQVEGLHVDRDLSVAHLKFTLEEFARRMFGEGAKVRLRPSFFPFTEPSFEVDVYLSGYGWLEILGAGMVDPNVFLNVGYDPEEWTGYAFGMGVERIAMLKYGIADIREFVRNDVRFLSSY
